# Test results taken from publication PMC11203719, “Mts1 (S100A4) and Its Peptide Demonstrate Cytotoxic Activity in Complex with Tag7 (PGLYRP1) Peptide” (International Journal of Molecular Sciences, 2024).
# pKd: −log10 of the molar value.
# Target: Mts1 (S100A4) protein, recombinant human (human) (UniProt P26447)
# Assay: MST; Mts1 labelled with Alexa Fluor 633 (200 nM), preincubated 20 min in the dark at room temperature with 16 concentrations of Tag7 or peptide; Monolith NT.115, 10% IR laser power; apparent Kd
# Mts1 (S100A4) protein, recombinant human (human), sequence (P26447 whole entry): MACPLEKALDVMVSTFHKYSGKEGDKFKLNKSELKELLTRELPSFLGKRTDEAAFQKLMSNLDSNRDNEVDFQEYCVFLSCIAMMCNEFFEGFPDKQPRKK
substance,measurement,value
"Tag7 (PGLYRP1) protein, recombinant (from UniProt O88593 19-182) (natural protein)",pKd,5.04
